From patent US20100034826A1 (Bristol-Myers Squibb, published 2010)

T1: human PTK7, full length, on the cell surface (human, UniProt Q13308 31-1070)
T1 construct: also called CCK4; protein tyrosine kinase 7
T1 sequence: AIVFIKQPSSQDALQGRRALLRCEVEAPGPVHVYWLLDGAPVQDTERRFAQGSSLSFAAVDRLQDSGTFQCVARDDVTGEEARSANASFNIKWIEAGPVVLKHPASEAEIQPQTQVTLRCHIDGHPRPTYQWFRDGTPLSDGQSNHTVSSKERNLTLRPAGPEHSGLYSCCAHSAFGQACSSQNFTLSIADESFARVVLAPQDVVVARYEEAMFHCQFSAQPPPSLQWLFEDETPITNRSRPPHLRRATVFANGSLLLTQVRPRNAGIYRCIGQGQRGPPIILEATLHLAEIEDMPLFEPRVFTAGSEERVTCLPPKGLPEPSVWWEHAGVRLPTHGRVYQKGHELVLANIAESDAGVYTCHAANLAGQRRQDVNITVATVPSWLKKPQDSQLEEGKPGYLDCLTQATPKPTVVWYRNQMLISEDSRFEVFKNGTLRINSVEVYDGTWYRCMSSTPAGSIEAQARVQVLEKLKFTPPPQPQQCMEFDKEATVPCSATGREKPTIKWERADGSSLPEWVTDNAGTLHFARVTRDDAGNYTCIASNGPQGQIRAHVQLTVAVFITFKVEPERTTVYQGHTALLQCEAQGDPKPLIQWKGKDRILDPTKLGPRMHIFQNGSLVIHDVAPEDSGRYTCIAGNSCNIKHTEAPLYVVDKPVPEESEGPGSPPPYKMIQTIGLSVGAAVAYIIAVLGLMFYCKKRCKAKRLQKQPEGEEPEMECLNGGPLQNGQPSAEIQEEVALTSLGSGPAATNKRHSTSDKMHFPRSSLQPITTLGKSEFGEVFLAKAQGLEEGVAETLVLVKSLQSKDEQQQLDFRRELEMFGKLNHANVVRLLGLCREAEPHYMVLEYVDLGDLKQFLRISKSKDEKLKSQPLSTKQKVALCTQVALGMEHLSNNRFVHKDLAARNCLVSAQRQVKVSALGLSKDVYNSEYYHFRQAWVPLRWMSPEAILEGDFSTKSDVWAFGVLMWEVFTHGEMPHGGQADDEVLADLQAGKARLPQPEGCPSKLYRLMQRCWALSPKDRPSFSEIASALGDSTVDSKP

T2: recombinant extracellular domain of PTK7 (human, UniProt Q13308 31-704)
T2 construct: also called PTK7 extracellular domain
T2 sequence: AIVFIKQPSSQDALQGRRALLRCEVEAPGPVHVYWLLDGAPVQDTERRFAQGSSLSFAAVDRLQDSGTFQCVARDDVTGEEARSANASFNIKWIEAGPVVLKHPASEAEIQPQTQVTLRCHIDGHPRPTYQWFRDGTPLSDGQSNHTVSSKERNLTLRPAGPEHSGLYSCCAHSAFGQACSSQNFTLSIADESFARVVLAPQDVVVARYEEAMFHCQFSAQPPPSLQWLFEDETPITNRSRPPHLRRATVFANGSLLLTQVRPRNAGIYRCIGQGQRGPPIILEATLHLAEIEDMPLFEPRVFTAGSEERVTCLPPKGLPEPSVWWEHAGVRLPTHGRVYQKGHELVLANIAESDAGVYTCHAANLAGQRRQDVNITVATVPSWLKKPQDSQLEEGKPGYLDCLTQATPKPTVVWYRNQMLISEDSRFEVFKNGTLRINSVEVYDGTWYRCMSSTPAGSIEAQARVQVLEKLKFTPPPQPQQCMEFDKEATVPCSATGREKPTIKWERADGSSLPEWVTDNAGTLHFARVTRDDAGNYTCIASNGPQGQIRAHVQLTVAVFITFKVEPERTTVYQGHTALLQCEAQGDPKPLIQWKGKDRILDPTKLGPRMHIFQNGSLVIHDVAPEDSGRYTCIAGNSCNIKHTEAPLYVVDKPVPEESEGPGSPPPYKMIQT


Key:
[1] = target: T1, human PTK7, full length, on the cell …; assay: flow cytometry on Wilms' tumor G-401 cells, antibody from 30 µg/ml in 1:10 dilutions
Description: The nephroblastoma Wilms' tumor cell line G-401 (ATCC Acc No. CRL-1441) was tested for binding of the HuMAb anti-PTK7 human monoclonal antibodies 12C6 and 7C8 at different concentrations. Binding of the anti-PTK7 human monoclonal antibodies was assessed by incubating 1×10⁵ cells with antibody at a starting concentration of 30 μg/ml and serially diluting the antibody at a 1:10 dilution. The cells were washed and binding was detected with a PE-labeled anti-human IgG Ab. Flow cytometric analyses were performed using a FACScan flow cytometry (Becton Dickinson, San Jose, Calif.). The anti-PTK7 monoclonal antibodies 12C6 and 7C8 bound to the nephroblastoma Wilms' tumor cell line in a concentration dependent manner, as measured by the mean fluorescent intensity (MFI) of staining.

[2] = target: T1, human PTK7, full length, on the cell …; assay: cell-based or functional assay
[3] = target: T2, recombinant extracellular domain of PTK7; assay: ELISA on recombinant PTK7 extracellular domain, HRP anti-human IgG (kappa) detection
Description: (§1) Recombinant extracellular domain of PTK7 was tested for binding against the anti-PTK7 human monoclonal antibodies 3G8, 4D5, 12C6 and 12C6a at different concentrations. Standard ELISA procedures were performed. The anti-PTK7 human monoclonal antibodies were added at a starting concentration of 10 μg/ml and serially diluted at a 1:2 dilution. Goat-anti-human IgG (kappa chain-specific) polyclonal antibody conjugated with horseradish peroxidase (HRP) was used as secondary antibody. Each of the anti-PTK7 human monoclonal antibodies 3G8, 4D5, 12C6 and 12C6a bound to PTK7.

[4] = target: T1, human PTK7, full length, on the cell …; assay: flow cytometry on cancer cell lines that express cell surface PTK7, antibody at 10 µg/ml, MFI
Description: Binding of the 3G8, 12C6a, 4D5 and 12C6 anti-PTK7 human monoclonal antibodies to a panel of cancer cell lines was assessed by incubating cancer cell lines with anti-PTK7 human monoclonal antibodies at a concentration of 10 μg/ml. […] An isotype control antibody was used as a negative control. The cells were washed and binding was detected with a FITC-labeled anti-human IgG Ab. Flow cytometric analyses were performed using a FACScan flow cytometry (Becton Dickinson, San Jose, Calif.).

[5] = target: T2, recombinant extracellular domain of PTK7; assay: ELISA on recombinant extracellular domain of PTK7, antibody from 10 µg/ml in 1:2 dilutions
Description: as §1

| Binder | EC50 [1] [nM] | EC50, Hum-Zap internalization assay (3H-thymidine incorporation), A-431 cells [2] [nM] | EC50, Hum-Zap internalization assay (3H-thymidine incorporation), PC3 tumor cells [2] [nM] | EC50, Hum-Zap internalization assay (3H-thymidine incorporation), Wilms' tumor cells [2] [nM] | EC50 (read off the curve) [3] [µg/mL] | binding result [4] | binding result [5] |
| --- | --- | --- | --- | --- | --- | --- | --- |
| anti-PTK7 human monoclonal antibody 12C6 (antibody, V domains shown, Human IgG with kappa light chain, made by a hybridoma) VH: EVQLVQSGGGLVHPGGSLRLSCAGSGFTFSTYLMYWVRQAPGKTLEWVSAIGSGGDTYYADSVKGRFTISRDNAKNSLYLQMNSLRAEDMAVYYCARGLGYWGQGTLVTVSS VL: not shown | 4.04 | 166 | 0.318 | 0.205 | ~0.6 | – | – |
| anti-PTK7 human monoclonal antibody 3G8 (antibody, V domains shown) VH: QVQLVESGGGVVQPGRSLRLSCAASGFIFSNYAMHWVRQAPGKGLEWVAVISYDGNNKYYADSVKGRFTISRDNSKNTLYLQMNSLRAEDTAVYYCAREVWSIDNWGQGTLVTVSS VL: DIQMTQSPSSLSASVGDRVTITCRASQGISSWLAWYQQKPEKAPKSLIYAASSLQSGVPSRFSGSGSGTDFTLTISSLQPEDFATYYCQQYNSYPRTFGQGTKVEIK | – | – | – | 0.644 | – | – | – |
| anti-PTK7 human monoclonal antibody 12C6a (antibody, V domains shown, Human IgG with kappa light chain, made by a hybridoma; Same VH as 12C6) VH: EVQLVQSGGGLVHPGGSLRLSCAGSGFTFSTYLMYWVRQAPGKTLEWVSAIGSGGDTYYADSVKGRFTISRDNAKNSLYLQMNSLRAEDMAVYYCARGLGYWGQGTLVTVSS VL: DIQMTQSPSSLSASVGDRVTITCRASQGISSWLAWYQQKPEKAPKSLIYAASSLQSGVPSRFSGSGSGTDFTLTISSLQPEDFATYYCQQYNSYPYTFGQGTKLEIK | – | – | – | – | – | binds | binds |

Other lines, results leading:

| EC50 [1] [nM] | EC50, Hum-Zap internalization assay (3H-thymidine incorporation), A-431 cells [2] [nM] | EC50, Hum-Zap internalization assay (3H-thymidine incorporation), PC3 tumor cells [2] [nM] | EC50, Hum-Zap internalization assay (3H-thymidine incorporation), Wilms' tumor cells [2] [nM] | EC50 (read off the curve) [3] [µg/mL] | binding result [4] | binding result [5] | Binder |
| --- | --- | --- | --- | --- | --- | --- | --- |
| 3.43 | 0.183 | 0.265 | 0.179 | – | – | – | anti-PTK7 human monoclonal antibody 7C8 (antibody, V domains shown, Human IgG with kappa light chain, made by a hybridoma; also called 7CS) VH: QVQLVESGGGVVQPGRSLRLSCAASGFTFSSYGMHWVRQAPGKGLEWVAVIWDDGSNKYYVDSVKGRFTISRDNSKNTLYLQMNSLRAEDTAVYYCARDDYYGSGSFNSYYGTDVWGQGTTVTVSS VL: EIVLTQSPATLSLSPGERATLSCRASQSVSIYLAWYQQKPGQAPRLLIYDASNRATGIPARFSGSGSGTDFTLTISSLEPEDFAVYYCQQRSNWPPFTFGPGTKVDIK |
| – | – | – | 0.252 | – | – | – | anti-PTK7 human monoclonal antibody 4D5 (antibody, V domains shown) VH: QVQLVESGGGVVQPGRSLRLSCAASGFTFSSYAFHWVRQAPGKGLEWVAVISYDGSIKYYADSVKGRFTISRDNSKNTLYLQMNSLRAEDTAVYYCARTYYFDYWGQGTLVTVSS VL: EIVLTQSPDFQSVTPKEKVTITCRASQSIGSSLHWYQQKPDQSPKLLIKYASQSFSGVPSRFSGSGSGTDFTLTINSLEAEDAAAYYCHQSSSLPITFGQGTRLEIK |
